Measurements: US6329500A, “Transforming growth factor-β binding site” (University of Virginia Patent Foundation, priority 1999, dated 2001)

Key:
[1] = test system: FBHE cells; experiment: Endothelial cell proliferation assay, TGF-β alone; format: cell-based, bovine; settings: TGF-β 10 pM, 1 h pulse
Method: (§1) Fetal bovine heart endothelial (FBHE) cells were cultured in DMEM supplemented with 10% FBS, 20 ng/ml acidic fibroblast growth factor, and 80 ng/ml basic fibroblast growth factor and passaged at subconfluence with trypsin-EDTA. To perform proliferation assays, the cells were plated at a density of 2×10^4 /well (24 well plates) in DMEM supplemented with 0.2% FBS. […] The fusion proteins were preincubated with the TGF-β for 15 min prior to addition to the cultures. At the completion of an incubation, the cultures were washed 3 times with serum-free DMEM and then allowed to incubate in DMEM with 0.2% FBS for 30 h. [^3 H]Thymidine was added for an additional 18 h; the cells were then harvested and [^3 H]thymidine incorporation was quantitated.

[2] = target: T1, TGF-β2 (Homo sapiens, UniProt P61812); experiment: Ligand blot analysis of 125I-TGF-β2 binding to PVDF-immobilized proteins; settings: SDS-PAGE, PVDF membrane, 125I-TGF-β2 20 pM, 2 h at 25° C.
T1 construct: purchased Genzyme (Cambridge, Mass.)
T1 sequence (P61812 303-414 limits assumed): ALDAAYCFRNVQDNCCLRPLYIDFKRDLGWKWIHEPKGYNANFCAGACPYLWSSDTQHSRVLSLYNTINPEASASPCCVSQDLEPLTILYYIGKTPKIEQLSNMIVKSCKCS
Method: To block free sulfhydryls, some samples were treated with 5 mM IAM for 2 h at 25° C. Equivalent amounts of each protein ([…]) were subjected to SDS-PAGE on 10% slabs. IAM-treated GST-α2 M-peptide fusion proteins were subjected to SDS-PAGE as well. All samples were electro-transferred to PVDF membranes. The membranes were blocked with 5% milk and 0.1% Tween 20 in PBS for 12 h at 4° C. and then rinsed with 0.1% Tween 20 in PBS (PBS-T). […] Biophys. Res. Commun. […] NGF-β was radioiodinated with Iodogen, to a specific activity of 2-5 μCi/μg, using the method recommended by the manufacturer. […] After washing the membranes with PBS-T, bound radioligands were detected by Phosphorlmager analysis.

[3] = target: T1, TGF-β2; experiment: Binding of 125I-TGF-β2 to FP3 and FP4 in solution as determined by FPLC on Superose-12; settings: fusion protein 0.5 μM, 125I-TGF-β2 0.5 nM, 30 min 37° C., n=2
Method: The flow rate was 0.4 ml/min. […] To calibrate the FPLC, the following proteins were subjected to chromatography on the same column: soybean trypsin inhibitor (Mr~21,500, Ve of 14.1 ml), ovalbumin (Mr~45,000, Ve of 12.9 ml), BSA (Mr~66,000, Ve of 12.1 ml), and BSA dimer (Mr~132,000, Ve of 10.9 ml).

[4] = target: T1, TGF-β2; experiment: 125I-TGF-β2 binding to immobilized α2M-MA, solution-phase competition; settings: increasing concentrations (4-250 nM)
Method: The wells were washed three times with PBS-T and blocked with PBS-T for 16 h at 4° C. […] In the presence of a fusion protein (FP) which binds TGF-β, the total concentration of TGF-β [βT ] was related to [βF ], at equilibrium, as follows: [βT ]=[βF ](1+[FP]/KI).

[5] = target: T2, TGF-β1 (Homo sapiens, UniProt P01137); experiment: Endothelial cell proliferation assay, neutralization of TGF-β1 by fusion proteins; format: cell-based
T2 construct: purchased R&D Systems (Minneapolis, Minn.)
Method: as §1

[6] = target: T1, TGF-β2; experiment: Endothelial cell proliferation assay, neutralization of TGF-β2 by fusion proteins; format: cell-based
Method: as §1

[7] = test system: RAW 264.7 cells; experiment: NO synthesis (nitrite in conditioned medium) by RAW 264.7 cells; format: cell-based, murine; settings: 250 nM, SFM, 24 h
Method: NO synthesis by RAW 264.7 cells was quantitated by measuring the stable NO oxidation product, nitrite, in conditioned medium, as previously described (Anal. Biochem. 126, 131-138 (1982)). […] The fusion proteins were purified and detergent-free. After 24 h, conditioned medium (100 μl) was recovered and nitrite was measured. […] Biol, Chem. 270, 21919-21927 (1995)). The α2 M-induced increase in RAW 264.7 cell NO synthesis is inhibited by the NOS inhibitor, N^G -monomethyl-L-arginine.

[8] = target: T2, TGF-β1; settings: read-out: KD for TGF-β1 (either TGF-β isoform); cited from earlier work
[9] = target: T1, TGF-β2; settings: read-out: KD for TGF-β2 (either TGF-β isoform); cited from earlier work

B1: TGF-β2: transforming growth factor-β2 from Genzyme (protein, UniProt P61812 303-414, looked up)
Transforming growth factor …: ALDAAYCFRNVQDNCCLRPLYIDFKRDLGWKWIHEPKGYNANFCAGACPYLWSSDTQHSRVLSLYNTINPEASASPCCVSQDLEPLTILYYIGKTPKIEQLSNMIVKSCKCS
[1]
  Decrease of [3H]thymidine incorporation: 57%

B2: FP4: GST-fusion protein with human α2M amino acids 798-1082 (protein)
chain: CIRVSVQLEASPAFLAVPVEKEQAPHCICANGRQTVSWAVTPKSLGNVNFTVSAEALESQELCGTEVPSVPEHGRKDTVIKPLLVEPEGLEKETTFNSLLCPSGGEVSEELSLKLPPNVVEESARASVSVLGDILGSAMQNTQNLLQMPYGCGEQNMVLFAPNIYVLDYLNETQQLTPEIKSKAIGYLNTGYQRQLNYKHYDGSYSTFGERYGRNQGNTWLTAFVLKTFAQARAYIFIDEAHITQALIWLSQRQKDNGCFRSSGSLLNNAIKGGVEDEVTLSAYI
modifications: free sulfhydryls blocked with iodoacetamide (IAM)
[2]
  125I-TGF-β2 binding, ligand blot: did not bind
[3]
  125I-TGF-β2 recovered (co-eluted) with the fusion protein: 6%
[4]
  Inhibition of 125I-TGF-β2 binding to immobilized α2M-MA: did not inhibit
[5]; FBHE cells, fusion protein (0.2 μM) + TGF-β1 (10 pM), 1 h pulse
  [3H]thymidine incorporation (% control): 31 ± 4%
[5]; fusion protein 200 nM, TGF-β1 10 pM
  Effect on TGF-β1 activity in FBHE proliferation assay: No change in TGF-β activity
[6]; FBHE cells, fusion protein (0.2 μM) + TGF-β2 (10 pM), 1 h pulse
  [3H]thymidine incorporation (% control): 38 ± 6%
[6]; fusion protein 200 nM, TGF-β2 10 pM
  Effect on TGF-β2 activity in FBHE proliferation assay: No change in TGF-β activity
[7]
  Nitrite production by RAW 264.7 cells: did not increase nitrite production

B3: MUG: monomeric murine homologue of human α2M, purified from plasma of CD-1 female mice (protein)
chain: DSKYMVLVPSQLYTETPEKICLHLYQLNETVTVTASLVSQSGRKNLFDELVLDKDLFQCVSFIIPRLSSSDEEDFLYVDIKGPTHEFSKRKAVLVKNKESVVFVQTDKPVYKPGQSVKFRVVSMDKMLRPLNELLPLAYIEDPKKNRIMQWRDIKTENGLKQMSFSLAAEPIQGPYKIVVHKESGEKEEHSFTVMEFVLPRFNVDLKVPNAMSVNDEVLSVTACGKYTYGKPVPGHVKINVCRETETGCREVNSQLDNNGCSTQEVNITELQSKKRNYEVQLFHVNATVTEEGTGLEFSRSGTTKIERITNKLIFLKADSHFRHGIPFFVKVRLVDIKGDPIPNEKVFIKAQELSYTSATTTDQHGLAEFSIDTTCISGSSLHIKVNHKEEDSCSYFYCMEERHASAKHVAYAVYSLSKSYIYLDTETSSILPCNQIHTVQAHFILKGDLGVLKELIFYYLVMAQGSIIQTGNHTHQVEPGEAPVKGKFALEIPVEFSMVPMAKMLIYTILPDGEVIADSVNFEIEKCLRNKVDLRFSTSQSLPASQTRLQVTASPQSLCGLRAVDQSVLLLKPESELSPSWIYNLPGMQQNKFVPSSRLSEDQEDCILYSSWLAEKHTNLVPHGTEKDVYRYVEDMGLTAFTNLMIKLPIICFDYGMVPISAPRVEFDLAFTPEISWSLRTTLSKRPEEPPRKDPSSNDPLTETIRKYFPETWVWDIVTVNSTGLAEVEMTVPDTITEWKAGALCLSNDTGLGLSSVVPLQAFKPFFVEVSLPYSVVRGEAFMLKATVMNYLPTSMQMSVQLEASPDFTAVPVGDDQDSYCLSANGRHTSSWLVTPKSLGNVNFSVSAEAQQSSEPCGSEVATVPETGRKDTVVKVLIVEPEGIKQEHTFSSLFCASDAEISEKMSLVLPPTVVKDSARAHFSVMGDILSSAIRNTQNLLHMPYGCGEQNMVLFAPNIYVLKYLNETQQLTQKIKTKALGFLRAGYQRELNYKHKDGSYSAFGDQNGEREGNTWLTAFVLKSFAQARAFIFIDESHITHAFTWLSQKQKDNGCFRSSGSLFNNAMKGGVDDEMTLSAYITMALLESSLPATHPVVSKALSCLESSWKTIEQERNASFVYTKALMAYAFALAGNQNKRDEILKSLDEEAIKENNSIHWKRPQKSRKSEHHLYKPQASSAEVEMNAYVVLARLTAQPAPSPEDLTLSMSTIMWLTKQQNSNGGFSSTQDTVVALDALSKYGAVTFSRSQKTTLVTIQSTGSFSQKFQVENSNRLLLQQVALPDIPGDYTISVSGEGCVYAQTMLRYNMHLEKQLSAFAIWVQTVPLTCNNPKGHNSFQISLEISYTGSRPASNMVIADVKMLSGFIPLKPTVKKLERLEHVSRTEVSNNNVLIYLDQVTNQTLAFSFIIQQDIPVRNLQPAIVKVYDYYETDEMAFAEYSSPCSTDKQNV
[2]
  125I-TGF-β2 binding, ligand blot: only trace levels
[8]
  Kd: ~1000 nM
[9]
  Kd: ~1000 nM

B4: FP1: GST-fusion protein with human α2M amino acids 122-415 (protein)
chain: KFRVVSMDENFHPLNELIPLVYIQDPKGNRIAQWQSFQLEGGLKQFSFPLSSEPFQGSYKVVVQKKSGGRTEHPFTVEEFVLPKFEVQVTVPKIITILEEEMNVSVCGLYTYGKPVPGHVTVSICRKYSDASDCHGEDSQAFCEKFSGQLNSHGCFYQQVKTKVFQLKRKEYEMKLHTEAQIQEEGTVVELTGRQSSEITRTITKLSFVKVDSHFRQGIPFFGQVRLVDGKGVPIPNKVIFIRGNEANYYSNATTDEHGLVQFSINTTNVMGTSLTVRVNYKDRSPCYGYQWVS
modifications: free sulfhydryls blocked with iodoacetamide (IAM)
[2]
  125I-TGF-β2 binding, ligand blot: did not bind

B5: FP2: GST-fusion protein with human α2M amino acids 364-613 (protein)
chain: RGNEANYYSNATTDEHGLVQFSINTTNVMGTSLTVRVNYKDRSPCYGYQWVSEEHEEAHHTAYLVFSPSKSFVHLEPMSHELPCGHTQTVQAHYILNGGTLLGLKKLSFYYLIMAKGGIVRTGTHGLLVKQEDMKGHFSISIPVKSDIAPVARLLIYAVLPTGDVIGDSAKYDVENCLANKVDLSFSPSQSLPASHAHLRVTAAPQSVCALRAVDQSVLLMKPDAELSASSVYNLLPEKDLTGFPGPLND
modifications: free sulfhydryls blocked with iodoacetamide (IAM)
[2]
  125I-TGF-β2 binding, ligand blot: did not bind

B6: FP5: GST-fusion protein with human α2M amino acids 1053-1302 (protein)
chain: DNGCFRSSGSLLNNAIKGGVEDEVTLSAYITIALLEIPLTVTHPVVRNALFCLESAWKTAQEGDHGSHVYTKALLAYAFALAGNQDKRKEVLKSLNEEAVKKDNSVHWERPQKPKAPVGHFYEPQAPSAEVEMTSYVLLAYLTAQPAPTSEDLTSATNIVKWITKQQNAQGGFSSTQDTVVALHALSKYGAATFTRTGKAAQVTIQSSGTFSSKFQVDNNNRLLLQQVSLPELPGEYSMKVTGEGCVYLQ
modifications: free sulfhydryls blocked with iodoacetamide (IAM)
[2]
  125I-TGF-β2 binding, ligand blot: did not bind
